Measurements as given in PMC5576363.
Numbering of substitutions follows the chain as printed.

Key:
[1] = molecular target: T1, LbuC2c2-dHEPN1 (Leptotrichia buccalis, UniProt C7NBY4 1-1159, R472A;H477A); assay: filter binding
T1 sequence: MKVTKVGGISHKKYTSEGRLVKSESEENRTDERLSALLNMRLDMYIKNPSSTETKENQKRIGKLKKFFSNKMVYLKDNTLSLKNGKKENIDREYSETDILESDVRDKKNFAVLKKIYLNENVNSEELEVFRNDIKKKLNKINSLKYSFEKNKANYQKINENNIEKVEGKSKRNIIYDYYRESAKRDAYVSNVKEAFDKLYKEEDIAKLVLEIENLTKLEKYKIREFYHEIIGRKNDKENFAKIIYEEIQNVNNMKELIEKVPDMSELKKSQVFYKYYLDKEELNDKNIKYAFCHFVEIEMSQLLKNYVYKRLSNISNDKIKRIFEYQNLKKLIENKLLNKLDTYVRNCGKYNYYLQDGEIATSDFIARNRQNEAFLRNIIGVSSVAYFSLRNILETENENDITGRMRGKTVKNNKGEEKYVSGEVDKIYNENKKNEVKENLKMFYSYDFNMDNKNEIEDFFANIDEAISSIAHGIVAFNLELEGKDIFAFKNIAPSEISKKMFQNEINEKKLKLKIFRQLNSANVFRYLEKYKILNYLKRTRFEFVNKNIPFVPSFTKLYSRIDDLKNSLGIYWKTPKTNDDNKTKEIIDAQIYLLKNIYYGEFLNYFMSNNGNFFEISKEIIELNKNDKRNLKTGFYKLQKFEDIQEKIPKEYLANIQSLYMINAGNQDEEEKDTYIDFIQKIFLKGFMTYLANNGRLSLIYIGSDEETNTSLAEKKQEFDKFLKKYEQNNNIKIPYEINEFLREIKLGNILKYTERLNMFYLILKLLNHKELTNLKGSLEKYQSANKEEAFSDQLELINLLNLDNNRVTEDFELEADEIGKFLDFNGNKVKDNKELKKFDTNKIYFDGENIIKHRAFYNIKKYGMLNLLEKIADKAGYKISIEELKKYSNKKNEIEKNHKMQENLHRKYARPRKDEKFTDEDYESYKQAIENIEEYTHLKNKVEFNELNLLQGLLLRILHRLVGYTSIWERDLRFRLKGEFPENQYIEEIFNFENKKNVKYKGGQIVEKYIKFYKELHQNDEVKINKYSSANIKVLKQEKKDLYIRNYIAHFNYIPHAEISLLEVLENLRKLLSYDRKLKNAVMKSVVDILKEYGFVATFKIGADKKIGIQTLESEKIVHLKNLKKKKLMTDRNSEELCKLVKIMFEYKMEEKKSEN

[2] = molecular target: T2, LbuC2c2-dHEPN1/dHEPN2 (Leptotrichia buccalis, UniProt C7NBY4 1-1159, R472A;H477A;R1048A;H1053A); assay: filter binding
T2 sequence: T1 sequence with R1048A, H1053A

[3] = molecular target: T3, LbuC2c2-dHEPN2 (Leptotrichia buccalis, UniProt C7NBY4 1-1159, R1048A;H1053A); assay: filter binding
T3 sequence: T1 sequence with A472R, A477H, R1048A, H1053A

[4] = molecular target: T4, LbuC2c2-R1079A (Leptotrichia buccalis, UniProt C7NBY4 1-1159, R1079A); assay: filter binding
T4 sequence: T1 sequence with A472R, A477H, R1079A

[5] = molecular target: T2, LbuC2c2-dHEPN1/dHEPN2; assay: EMSA

B1: mature crRNA-A_GG (crLbu_A_GG_AES432) (structured_RNA)
RNA: GGCCACCCCAAAAAUGAAGGGGACUAAAACAGGGGCAGAGAUGAUGACCCU
- Kd [1]: 15.2 ± 3.2 nM
- Kd [2]: 43.3 ± 11.5 nM
- Kd [3]: 11.5 ± 2.5 nM

B2: mature crRNA-A_GA (crLbu_A_mature_GA_SCK340) (structured_RNA)
RNA: B1 RNA with G2A
- Kd [4]: 2.52 ± 0.5 nM

B3: crRNA-A_GG guide + on-target A ssRNA (mixed)
RNA 1: B1 RNA
RNA 2: GGCACACCCGCAGGGGGGAGCCAAAAGGGUCAUCAUCUCUGCCCCCACAGCAGAAGCCCC
- Kd [5]: 1.62 ± 0.43 nM
